Measured values taken from patent US20190085030A1.
Non-standard residues stand in square brackets, D forms with d. No end group written: not given here.

These binders were tested against A-beta1-42 (UniProt P05067) (assay: iodixanol density gradient centrifugation of A-beta1-42 with FITC-labelled peptide; dye in fraction 12).
Chain of A-beta1-42 (P05067 672-713 limits assumed): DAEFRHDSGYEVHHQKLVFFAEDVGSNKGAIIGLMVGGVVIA
A Peptide bound in fraction 12 [%] of 0% was found for [dR][dP][dR][dT][dR][dL] [NT-D3 (D3-N-Terminus) (SEQ ID NO: 6)] in this work.
A Peptide bound in fraction 12 [%] of 20% was found for [dP][dT][dL][dH][dT][dH][dN][dR][dR][dR][dR][dR] (also: FITC label, site not given here) [RD2 (rational D3) (SEQ ID NO: 2)] in this work.
A Peptide bound in fraction 12 [%] of 4% was found for [dR][dR][dP][dT][dL][dR][dH][dT][dH][dN][dR][dR] (also: FITC label, site not given here) [RD3 (rational D3) (SEQ ID NO: 4)] in this work.
A Peptide bound in fraction 12 [%] of 4% was found for [dR][dP][dR][dT][dR][dL][dH][dT][dH][dR][dN][dR] (also: FITC label, site not given here) [D3 (SEQ ID NO: 11)] in this work.
A Peptide bound in fraction 12 [%] of 2% was found for [dR][dP][dR][dT][dR][dL][dR][dN][dR] (also: FITC label, site not given here) [D3Δhth (D3 with deletion hth) (SEQ ID NO: 1)] in this work.
